Test [1] has as its target enhanced Green Fluorescent Protein (eGFP), cytosolic. Description: FRET or BRET; homoFRET by time-resolved fluorescence anisotropy imaging (tr-FAIM), epifluorescence excitation, objective 60x NA 1.49, xNA = 1.2; living HEK293 cells, 37°C, 5% CO2.
The target in test [2] is L17C APP-eGFP (human APP751 with leucine 17 of the Aβ sequence mutated to cysteine, fused to eGFP) (human). In words: FRET or BRET; homoFRET by tr-FAIM under TIRF excitation (s polarized light), at the plasma membrane; objective 60x NA 1.49; living HEK293 cells, 37°C, 5% CO2. (In general: Bioluminescence resonance energy transfer reports proximity on the nanometre scale.)
For test [3] the target is unchanged. Description: FRET or BRET; homoFRET by time-resolved fluorescence anisotropy imaging (tr-FAIM), epifluorescence excitation, objective 60x NA 1.49, xNA = 1.2; living HEK293 cells, 37°C, 5% CO2.

Take “enhanced Green Fluorescent Protein (eGFP), cytosolic”: the proportion of molecules in interaction (homoFRET) in test [1] was found to be 6.6%.
For “L17C APP-eGFP (human APP751 with leucine 17 of the Aβ sequence mutated to cysteine, fused to eGFP) (natural protein)”, the results for the depolarization time associated with energy transfer (homoFRET) in test [2] and in test [3] were 5.4 ns and 2.4 ns, respectively.
